± gives the uncertainty stated by the source.
Assay: protein stability index of a GFP-peptide fusion (yeast GPS) (PSI 1-4); higher = more stable; sorted into four equal gates, so the index is relative within each strain
Method in brief: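 Tiled yeast protein peptides of 17 residues were each joined downstream of GFP, on plasmids that also express Cherry. The pooled library was maintained in yeast, and mid-log cultures in leucine-free medium were sorted into four equal gates on the GFP/Cherry ratio. Plasmids from every gate were amplified by PCR and sequenced on Illumina, with barcodes linking reads to strains. The protein stability index of a peptide is its gate-number-weighted read frequency summed over the gates.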

Row | Sequence | protein stability index (doa10∆) | protein stability index (pdr5∆) | protein stability index (san1∆) | protein stability index (ubr1∆)
1 | NSLLLDSTPEEVSCKLL [YML103C/NUP188] | 2.67 ± 0.081 | 3.16 ± 0.08 | 2.97 ± 0.085 | 2.71 ± 0.08
2 | NSLSSNLSSLIVEINNV [YJL041W/NSP1] | 2.26 ± 0.037 | 2.58 ± 0.045 | 2.35 ± 0.051 | 2.41 ± 0.033
3 | NSQLVGKPHFSLLGGFD [PCI8] | 2.42 ± 0.087 | 2.33 ± 0.09 | 2.34 ± 0.18 | 2.54 ± 0.053
4 | NSSNLSYNNTGISDDEN [RRP4] | 2.53 ± 0.07 | 2.87 ± 0.064 | 2.87 ± 0.049 | 2.79 ± 0.06
5 | NSTNSNTTKPAFGGLNF [YJL041W/NSP1] | 3.29 ± 0.082 | 3.29 ± 0.09 | 3.14 ± 0.059 | 3.47 ± 0.076
6 | NTEEVNRLEKEQSVKTQ [LIN1] | 2.21 ± 0.2 | – | – | 1.74 ± 0.27
7 | NTHAVLVALKRNADELS [PRE5] | 2.13 ± 0.067 | 2.69 ± 0.05 | 2.45 ± 0.05 | 2.41 ± 0.039
8 | NTSAIQETASPLSQDEL [YIL149C/MLP2] | 1.23 ± 0.09 | 1.39 ± 0.091 | 1.19 ± 0.17 | 1.25 ± 0.077
9 | NTSIAQFDIQSPLYMDT [YML103C/NUP188] | 2.99 ± 0.08 | 2.89 ± 0.049 | 2.08 ± 0.081 | 3.01 ± 0.058
10 | NTSLNINGWKFESLPLK [SWP82] | 2.88 ± 0.055 | 2.96 ± 0.05 | 2.96 ± 0.053 | 3.06 ± 0.043
11 | NTSSLQSFQNPFTASQS [YIL149C/MLP2] | 2.36 ± 0.05 | 2.02 ± 0.038 | 2.45 ± 0.048 | 2.36 ± 0.034
12 | NVASLVRVQFQFTGFLL [GRR1] | 1.85 ± 0.072 | 1.73 ± 0.075 | 1.48 ± 0.1 | 1.55 ± 0.058
13 | NVDYYNVAHRIKEDIKK [SNF2] | 3.32 ± 0.065 | 3.17 ± 0.066 | 3.11 ± 0.04 | 3.02 ± 0.046
14 | NVEEEQIVPYIEKLTDG [BRR2] | 3.05 ± 0.061 | 3.06 ± 0.06 | 2.91 ± 0.071 | 3.2 ± 0.061
15 | NVEMEEDVLVNQILMSV [RPL1A] | 2.83 ± 0.13 | 3.14 ± 0.1 | 1.61 ± 0.15 | 2.92 ± 0.083
16 | NVETYEQILQWVTEVLG [BRR2] | 1.83 ± 0.065 | 1.75 ± 0.06 | 1.77 ± 0.089 | 2 ± 0.082
17 | NVGLCITIYDLLTVEEG [RPC25] | 1.45 ± 0.091 | 1.26 ± 0.067 | 1.45 ± 0.16 | 1.57 ± 0.076
18 | NVIITGSTSLIEGMEQR [ARP7] | 1.75 ± 0.06 | 2.49 ± 0.075 | 2.27 ± 0.065 | 2.13 ± 0.077
19 | NVKVIMATNRADTLDPA [RPT3] | 2.67 ± 0.1 | 2.07 ± 0.086 | 1.94 ± 0.22 | 2.44 ± 0.057
20 | NVLFLRLFNNVKIHSQE [SRP72] | 2.18 ± 0.049 | 2.06 ± 0.04 | 1.66 ± 0.061 | 2.08 ± 0.036

Row | Sequence | protein stability index (doa10∆) | protein stability index (pdr5∆) | protein stability index (san1∆) | protein stability index (ubr1∆)
21 | NVTLVNGKRRMNPGPSV [RPS30A] | 2.37 ± 0.059 | 2.79 ± 0.035 | 2.67 ± 0.055 | 2.65 ± 0.039
22 | NVVNYLSINKNFINQED [RPC17] | 1.39 ± 0.071 | 1.83 ± 0.061 | 1.55 ± 0.079 | 1.61 ± 0.045
23 | NWRLVEVGRVVLIKKGQ [RPL14A] | 2.17 ± 0.18 | 1.74 ± 0.13 | 2.15 ± 0.13 | 2.19 ± 0.19
24 | NYGSSLQWHAMIELICS [AAR2] | 1.31 ± 0.13 | 1.22 ± 0.13 | 1.1 ± 0.16 | 1.34 ± 0.15
25 | NYNHLLPTRYTLDVEAF [RPL27A] | 1.45 ± 0.045 | 1.61 ± 0.047 | 1.57 ± 0.087 | 1.52 ± 0.032
26 | NYPQDEINAVFNELCDP [POP1] | 2.84 ± 0.059 | 3.04 ± 0.051 | 2.9 ± 0.057 | 3.07 ± 0.056
27 | NYPQLTEDILKEISTRV [YCS4] | – | 3.11 ± 0.17 | – | 3.41 ± 0.13
28 | NYTDLIWFPEDFISPEL [MED1] | 2.56 ± 0.058 | 2.61 ± 0.058 | 2.82 ± 0.067 | 2.56 ± 0.032
29 | PAELDLRGSLLSRKPSD [RPC82] | 2.9 ± 0.13 | 3.38 ± 0.12 | 3.11 ± 0.099 | 3.19 ± 0.078
30 | PAFKPTEKKFTKEQYAA [RPL5] | 2.93 ± 0.089 | 3.12 ± 0.083 | 2.79 ± 0.067 | 3.04 ± 0.1
31 | PAKSASARGSYLRVSFK [RPL17A] | 3.2 ± 0.046 | 3.27 ± 0.051 | 3.091 ± 0.029 | 3.14 ± 0.041
32 | PDFEKLLPFVKGNVGFV [RPP0] | – | – | – | 1.89 ± 0.19
33 | PDILATDLIREKTMMTF [YCS4] | 2.28 ± 0.078 | 3.08 ± 0.081 | 2.86 ± 0.082 | 2.62 ± 0.056
34 | PDLDTECFISMQSTSPA [SWI1] | 2.68 ± 0.18 | 3.02 ± 0.13 | 2.32 ± 0.17 | 2.93 ± 0.07
35 | PDMYERKVENIRTILVN [MED7] | 1.32 ± 0.045 | 1.65 ± 0.045 | 1.46 ± 0.096 | 1.36 ± 0.036
36 | PDNSIFGDTKSESKQLG [SWI3] | 3.54 ± 0.14 | 3.23 ± 0.091 | 3.21 ± 0.076 | 3.37 ± 0.052
37 | PDPRSTVIPEDEEIIQL [RPO21] | 2.65 ± 0.081 | 2.75 ± 0.087 | 2.79 ± 0.077 | 2.66 ± 0.063
38 | PDYYVSILSFVDKELLE [RPT2] | 2.6 ± 0.054 | 2.55 ± 0.048 | 2.39 ± 0.05 | 2.59 ± 0.046
39 | PEETPLEELAETFQDTF [FAS2] | 3.11 ± 0.056 | 2.96 ± 0.062 | 3.12 ± 0.048 | 3.32 ± 0.059
40 | PEFAGYSKAAEPHAVSL [ASC1] | 2.51 ± 0.073 | 2.44 ± 0.063 | 2.17 ± 0.068 | 2.21 ± 0.047

— the supplement of paper PMC9732359
